In the supplement of paper PMC9112550, “Optimization of the antimicrobial peptide Bac7 by deep mutational scanning” (BMC Biology, 2022):

Test system: Escherichia coli TOP10
Assay: shrunken log2 fold change of peptide-encoding DNA abundance (4.5 h post-induction vs induction); higher = less antimicrobial activity (less host growth inhibition)
Details: time post-induction: 4.5 h; library: site-saturation at positions 5, 18, 19, 20
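Also: peptides expressed intracellularly from a pBAD plasmid library in pooled LB shake-flask culture, induced with 0.3% L-arabinose, DNA abundance read by NGS, three biological replicates, DESeq2 with apeglm shrinkage.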

Row | Sequence | shrunken log2 fold change
1 | RRIRDRPPRLPRPRPRPQAQPRP | -0.0247
2 | RRIRERPPRLPRPRPRPRWSPRP | -0.078
3 | RRIRARPPRLPRPRPRPNRVPRP | 0.0397
4 | RRIRVRPPRLPRPRPRPNPEPRP | -0.286
5 | RRIRGRPPRLPRPRPRPWMEPRP | 0.563
6 | RRIRNRPPRLPRPRPRPNAEPRP | 0.388
7 | RRIRKRPPRLPRPRPRPILKPRP | 0.117
8 | RRIRPRPPRLPRPRPRPYKLPRP | -0.313
9 | RRIRQRPPRLPRPRPRPQECPRP | -0.00962
10 | RRIRARPPRLPRPRPRPQRMPRP | 0.0748
11 | RRIRTRPPRLPRPRPRPVKHPRP | -0.411
12 | RRIRTRPPRLPRPRPRPWSEPRP | -0.364
13 | RRIRVRPPRLPRPRPRPGKTPRP | 0.0999
14 | RRIRSRPPRLPRPRPRPIHEPRP | -0.00691
15 | RRIRYRPPRLPRPRPRPGCYPRP | -0.8
16 | RRIRLRPPRLPRPRPRPAFIPRP | -0.116
17 | RRIRTRPPRLPRPRPRPAEFPRP | -0.355
18 | RRIRKRPPRLPRPRPRPKDTPRP | 0.26
19 | RRIRQRPPRLPRPRPRPTKVPRP | -0.0676
20 | RRIRNRPPRLPRPRPRPNELPRP | 0.106
21 | RRIRSRPPRLPRPRPRPIDVPRP | -0.0081
22 | RRIRFRPPRLPRPRPRPFEFPRP | -0.183
23 | RRIRARPPRLPRPRPRPPTLPRP | 0.503
24 | RRIRGRPPRLPRPRPRPLHTPRP | 0.851
25 | RRIRWRPPRLPRPRPRPRRKPRP | 0.178

Row | Sequence | shrunken log2 fold change
26 | RRIRHRPPRLPRPRPRPGPMPRP | 0.247
27 | RRIRGRPPRLPRPRPRPRPEPRP | 0.667
28 | RRIRARPPRLPRPRPRPYVTPRP | -0.658
29 | RRIRMRPPRLPRPRPRPKAIPRP | 0.417
30 | RRIRNRPPRLPRPRPRPFPGPRP | -0.00992
31 | RRIRTRPPRLPRPRPRPPNNPRP | -0.377
32 | RRIRYRPPRLPRPRPRPQDIPRP | -0.252
33 | RRIRPRPPRLPRPRPRPQQSPRP | -0.236
34 | RRIRCRPPRLPRPRPRPPHTPRP | 0.824
35 | RRIRIRPPRLPRPRPRPNQEPRP | -0.177
36 | RRIRYRPPRLPRPRPRPGGSPRP | -0.017
37 | RRIRQRPPRLPRPRPRPQYMPRP | -0.587
38 | RRIRLRPPRLPRPRPRPPHKPRP | -0.113
39 | RRIRRRPPRLPRPRPRPWKTPRP | 0.00424
40 | RRIRERPPRLPRPRPRPMCVPRP | -0.461
41 | RRIRERPPRLPRPRPRPYQLPRP | -0.0108
42 | RRIRLRPPRLPRPRPRPQFFPRP | 0.551
43 | RRIRLRPPRLPRPRPRPGCKPRP | -0.0977
44 | RRIRLRPPRLPRPRPRPYCHPRP | -0.542
45 | RRIRMRPPRLPRPRPRPKRQPRP | 0.0602
46 | RRIRFRPPRLPRPRPRPVCDPRP | -0.255
47 | RRIRMRPPRLPRPRPRPDLWPRP | 2.21
48 | RRIRQRPPRLPRPRPRPPITPRP | -0.0813
49 | RRIRHRPPRLPRPRPRPLLFPRP | -0.364
50 | RRIRLRPPRLPRPRPRPPIIPRP | -0.195

Row | Sequence | shrunken log2 fold change
51 | RRIRLRPPRLPRPRPRPETIPRP | 0.0243
52 | RRIRDRPPRLPRPRPRPQQHPRP | 0.0276
53 | RRIRARPPRLPRPRPRPEWFPRP | 0.0641
54 | RRIRERPPRLPRPRPRPPHYPRP | -0.159
55 | RRIRRRPPRLPRPRPRPHPCPRP | 0.0156
56 | RRIRRRPPRLPRPRPRPWGCPRP | 0.0658
57 | RRIRWRPPRLPRPRPRPYGYPRP | -0.345
58 | RRIRARPPRLPRPRPRPQIQPRP | 0.503
59 | RRIRKRPPRLPRPRPRPHYQPRP | -0.101
60 | RRIRPRPPRLPRPRPRPSRIPRP | -0.0841
61 | RRIRQRPPRLPRPRPRPMYCPRP | -0.526
62 | RRIRGRPPRLPRPRPRPLIQPRP | 0.827
63 | RRIRFRPPRLPRPRPRPWYVPRP | -0.757
64 | RRIRRRPPRLPRPRPRPECRPRP | 0.272
65 | RRIRMRPPRLPRPRPRPIIGPRP | -0.00776
66 | RRIRTRPPRLPRPRPRPHCHPRP | -0.0122
67 | RRIRSRPPRLPRPRPRPVKVPRP | 0.0828
68 | RRIRHRPPRLPRPRPRPGDVPRP | -0.16
69 | RRIRMRPPRLPRPRPRPAACPRP | 0.763
70 | RRIRDRPPRLPRPRPRPRGQPRP | 0.141
71 | RRIRARPPRLPRPRPRPAGIPRP | 0.156
72 | RRIRFRPPRLPRPRPRPFAIPRP | -0.109
73 | RRIRDRPPRLPRPRPRPPINPRP | -0.205
74 | RRIRRRPPRLPRPRPRPQATPRP | 0.233
75 | RRIRDRPPRLPRPRPRPDNRPRP | 0.147

Row | Sequence | shrunken log2 fold change
76 | RRIRSRPPRLPRPRPRPYSFPRP | -0.795
77 | RRIRNRPPRLPRPRPRPCNEPRP | -0.0138
78 | RRIRPRPPRLPRPRPRPTGNPRP | 0.141
79 | RRIRTRPPRLPRPRPRPPPHPRP | 0.907
80 | RRIRQRPPRLPRPRPRPFFWPRP | 0.314
81 | RRIRCRPPRLPRPRPRPGEIPRP | 0.183
82 | RRIRNRPPRLPRPRPRPEVKPRP | -0.031
83 | RRIRFRPPRLPRPRPRPWFHPRP | -0.714
84 | RRIRKRPPRLPRPRPRPMQAPRP | 1.15
85 | RRIRTRPPRLPRPRPRPDMQPRP | 1.96
86 | RRIRCRPPRLPRPRPRPFVNPRP | -0.521
87 | RRIRFRPPRLPRPRPRPGNEPRP | -0.00911
88 | RRIRIRPPRLPRPRPRPCMTPRP | -0.337
89 | RRIRHRPPRLPRPRPRPELDPRP | 0.6
90 | RRIRSRPPRLPRPRPRPPFKPRP | 0.0589
91 | RRIRPRPPRLPRPRPRPGGVPRP | 0.567
92 | RRIRVRPPRLPRPRPRPTEIPRP | 0.221
93 | RRIRCRPPRLPRPRPRPSPDPRP | 0.215
94 | RRIRVRPPRLPRPRPRPDQIPRP | -0.0895
95 | RRIRDRPPRLPRPRPRPIWKPRP | -0.00783
96 | RRIRIRPPRLPRPRPRPCFKPRP | -1.04
97 | RRIRERPPRLPRPRPRPAEAPRP | -0.0209
98 | RRIRMRPPRLPRPRPRPRIPPRP | 0.199
99 | RRIRGRPPRLPRPRPRPGENPRP | -0.0369
100 | RRIRIRPPRLPRPRPRPLPYPRP | -0.565

Row | Sequence | shrunken log2 fold change
101 | RRIRARPPRLPRPRPRPDRWPRP | 0.685
102 | RRIRRRPPRLPRPRPRPGIYPRP | 0.0548
103 | RRIRFRPPRLPRPRPRPNGCPRP | -0.0256
104 | RRIRTRPPRLPRPRPRPRSPPRP | 0.0437
105 | RRIRCRPPRLPRPRPRPMYPPRP | -0.375
106 | RRIRIRPPRLPRPRPRPSWMPRP | -0.562
107 | RRIRDRPPRLPRPRPRPSDYPRP | -0.566
108 | RRIRIRPPRLPRPRPRPYRYPRP | -0.127
109 | RRIRWRPPRLPRPRPRPCGAPRP | 0.525
110 | RRIRARPPRLPRPRPRPIEVPRP | 0.0287
111 | RRIRHRPPRLPRPRPRPHSAPRP | 0.0327
112 | RRIRPRPPRLPRPRPRPFSSPRP | -0.322
113 | RRIRNRPPRLPRPRPRPFVDPRP | -0.725
114 | RRIRMRPPRLPRPRPRPMYIPRP | -0.0178
115 | RRIRRRPPRLPRPRPRPRDEPRP | 0.48
116 | RRIRSRPPRLPRPRPRPKKEPRP | 0.00678
117 | RRIRLRPPRLPRPRPRPLCPPRP | -0.0651
118 | RRIRNRPPRLPRPRPRPRLKPRP | -0.00493
119 | RRIRIRPPRLPRPRPRPCCTPRP | -0.482
120 | RRIRIRPPRLPRPRPRPKWPPRP | 0.0341
121 | RRIRFRPPRLPRPRPRPTSRPRP | -0.291
122 | RRIRQRPPRLPRPRPRPCSTPRP | 0.0062
123 | RRIRMRPPRLPRPRPRPKPMPRP | 1.14
124 | RRIRQRPPRLPRPRPRPTRNPRP | 0.185
125 | RRIRNRPPRLPRPRPRPAMHPRP | -0.273
